{
  "source": "the DeepSol protein solubility set",
  "data": [
    {"test": "soluble on expression in E. coli; label from the status in PepcDB or PDB records", "values": [
      {"sequence": "MLGRGEGMRLEEARIAVDEALSAYRRCVEAEVEEYGPEYERVTFMEYEAPAPDPCAEAFLRLVEAVRAYEAAGGSREDLDLGRERKRVYEALDKG", "soluble on expression in E. coli": "soluble"},
      {"sequence": "MAHHHHHHMKKAKGSMKRLREGAENGTGGRNSSMKRQKGSTTGALSFAITNNTVTLERKARRQPKVAERCEDDDDEEDVELSKAVQAQTLSFLQHLNSKSSKTFWELRDVAQGKLSAASATTATSSSSQLPSSSRTKAAKGNAKGAKKLADDGEELWRVGGPYISGDQADDTDESERECGRTSDSELQSSTSSSEPSWVTDSSEEEDGGGSDDEAESAPVAAGATSRRSAAEPPKRGGGGGRLFQGGGDGVWDED", "soluble on expression in E. coli": "soluble"},
      {"sequence": "PVMADTIKLRIVETTDIHTNLMDYDYYKDKASDQIGLTRAATLVKQARAEVENSVLVDNGDLIQGSPMGDYMAAKGIKAGEVHPVYKAMNPLGYDVGNIGNHEFNYGLEFLKETINDAAFPYINANVFDAKTGQHLFTPYVIKEHSFKDTDGEAHTIKVGYIGFVPPQIMVWDKKNLEGKVTAADIKQTAEKLIPEMKAKGADVIVAIPHSGISTDEYQAGAENSVYYLTQVKGIDAIAFGHSHAVFPGKDFANVPGADIDKGTINGVTAVMPGRWGSHVGVMDLTLEKQQGRWAVTSGQSEARPIFDKANKKALVEADATMVQALQHDHQGTRDFVNQ", "soluble on expression in E. coli": "not soluble"},
      {"sequence": "MSLTANRDKFRPVYHHTPLYGWMNDANGLVYKDGEYHLYFQYNPYGSVWGNMHWGHSVSKDLVHWEHLDPAIARDTLGHIFSGSAIVDKHNSAGYGENTIVAFYTSHRNIPSGQSQVQSMAYSTDNGRTYTKYEQNPVLTPFDGLQNFRDPKVFWYEPEQKWIMIVSADKNMRFYSSANLKQWEYMSEFGEGFGPQPNQFECPDFIQLPVDGDRTRMKWVMIVNINPGFVYGGSGTMYFTGDFDGHQFVCDTKPEVVKWLDWGKDHYATVCFSNTGDRVIAVPWMSNWQYANYTPIQQFRSANALPRELSLYTGEDKQLYLSAAPVKETEHLRKDSKKLDDFTVNGEKRLETLFENNDGAFELELQLVSAGKEAGFELLNSLGEKVKIYLDASEGRVVMDRAESGIVDFGKKVKPHDLDTEESYARYKEVTVNYKNDFALGTWAPINTAKAHKIQVFVDNGSVELFVDGGRVAMTNLVFPNEPYNSLRFYSKGGEMKISNFTIYKLGLEGHHHHHH", "soluble on expression in E. coli": "soluble"},
      {"sequence": "MSLDQIKIAYIGGGSQGWARSLMSDLSIDERMSGTVALYDLDFEAAQKNEVIGNHSGNGRWRYEAVSTLKKALSAADIVIISILPGSLDDMEVDVHLPERCGIYQSVGDTVGPGGIIRGLRAVPIFAEIARAIRDYAPESWVINYTNPMSVCTRVLYKVFPGIKAIGCCHEVFGTQKLLAEMVTERLGIEVPRREDIRVNVLGINHFTWITKASYRHIDLLPIFREFSAHYGESGYELEGECWRDSVFCSAHRVAFDLFETYGAIPAAGDRHLAEFLPGPYLKQPEVWKFHLTPISFRKQDRAEKRQETERLIVQQRGVAEKASGEEGVNIIAALLGLGELVTNVNMPNQGQVLNLPIQAIVETNAFITRNRVQPILSGALPKGVEMLAARHISNQEAVADAGLTKDTGLAFQAFLNDPLVQIDRSDAEQLFNDMLQCIMQSEGHHHHHH", "soluble on expression in E. coli": "soluble"},
      {"sequence": "MSLKFTAIDFETANEKRNSPCSIGIVVVKDGHVVEKSHHLIRPKEMRFMPINIGIHGIRPAMVEKEPEFDKVWEKIKHYFDDTLVIAHNASFDISVLRKSAELYNIELPEFNYICTMKLARNFYKGIENAKLNTVNNFLGYEFRHHDALYDALACSNIMLSISKELKCKDITEISKLLGVTVGKVDSKGYKPSQTKGIAVRTSDRIYFSKKKSAFERLKADEFKNEVVVFTGRLDSMSRDEAMGLVRRLGGTAGSSVTKKTTILVTNMKNIKNLRREEMSNKLKRASDLNARGQNIKFLNEEEFLKIKEGHHHHHH", "soluble on expression in E. coli": "soluble"},
      {"sequence": "MKAFDQVNHSLLLQKLHDFGINPLFCNWFHDFLSSRTFSVKVNNHIDPNIHPISSGVPKGSVSGPFLFLIFINSLLLSVPPSISCSAFADDLKVYSHSPPLIQTTIDLITTWSENNKLPLAVHKAALLNKLGFSSNCVLLLAPLINSLVCRLLAASRTGVSTVAHSKTCLLHLGKKNPKTVYKINNLPISPSNIARDLGILTDSKLTFKPHIKKIVSLALLRCKQLLKSFKSLCPEFYCNLFKTYILPLIEYGSAVYSPKPSSSLSTLLEKPLRWYSQKVLQKFNVSYSLYNDRLKSLNLHSIRHRRLKSKLILLYKFCCGTSFLRRKETFFKLSTSSRRPMRIICHNPSSNNFFSDTISFWNAITNNCDTFLSPIHFENLVDNSITRL", "soluble on expression in E. coli": "not soluble"},
      {"sequence": "MGHHHHHHSHMPDHGDWTYEEQFKQLYELDGDPKRKEFLDDLFSFMQKRGTPVNRIPIMAKQVLDLFMLYVLVTEKGGLVEVINKKLWREITKGLNLPTSITSAAFTLRTQYMKYLYPYECEKRGLSNPNELQAAIDSNRREGRR", "soluble on expression in E. coli": "soluble"},
      {"sequence": "MSLIERVRTDLYRIPLPTRLTDSTHGAMMDFELITVRIEDSDGATGLGYTYTVNHGGAAVATMVDKDLRGCLLGADAEQIEKIWQSMWWRLHYAGRGGHATSAISAVDIALWDLKGIRARTPLWKLFGGYDPVVPVYAGGIDLELPVADLKTQADRFLAGGFRAIKMKVGRPDLKEDVDRVSALREHLGDSFPLMVDANMKWTVDGAIRAARALAPFDLHWIEEPTIPDDLVGNARIVRESGHTIAGGENLHTLYDFHNAVRAGSLTLPEPDVSNIGGYTTFRKVAALAEANNMLLTSHGVHDLTVHALASVPHRTYMEAHGFGLHAYMAEPMAVTDGCVSAPDRPGHGVVLDFERLGRLAVGEGHHHHHH", "soluble on expression in E. coli": "soluble"},
      {"sequence": "SLSLESLEWMAFDSFLLWRSEESIDARILLVEINQNDNYSLTSTISNSSFIGVIEKLQVYQPKVIGLEVDQHLLINSQEDKLAKIFQKYKNLIANEKILPLQVHSYLDLPNEQITFADQILDNDGKSRRSLLAINTSNGYKLSLAMELARIYLAEKNISLENSRLGKTKLPRFLPNSGGYIRADASGFQVLINFRSGNQRFRTLSGEDIKNGKFNPEWIRDRIVIIGITNTHNQGFIPTSAITSVKSASTQVNKLEIQAHAISQIISAVLDGRPLINTWNDG", "soluble on expression in E. coli": "soluble"},
      {"sequence": "MHVNGKVALVTGAAQGIGRAFAEALLLKGAKVALVDWNLEAGVQCKAALDEQFEPQKTLFIQCDVADQQQLRDTFRKVVDHFGRLDILVNNAGVNNEKNWEKTLQINLVSVISGTYLGLDYMSKQNGGEGGIIINMSSLAGLMPVAQQPVYCASKHGIVGFTRSAALAANLMNSGVRLNAICPGFVNTAILESIEKEENMGQYIEYKDHIKDMIKYYGILDPPLIANGLITLIEDDALNGAIMKITTSKGIHFQDYDTTPFQAKTQ", "soluble on expression in E. coli": "not soluble"},
      {"sequence": "MACAAARSPADQDRFICIYPAYLNNKKTIAEGRRIPISKAVENPTATEIQDVCSAVGLNVFLEKNKMYSREWNRDVQYRGRVRVQLKQEDGSLCLVQFPSRKSVMLYAAEMIPKLKTRTQLEHHHHHH", "soluble on expression in E. coli": "soluble"},
      {"sequence": "MPNQGSSNKVYVIGVGMTKFEKPGRREGWDYPDMARESGTKALRDAGIDYREVEQGYVGYVYGESTSGQRALYELGMTGIPIVNVNNNCSTGSTALYLGAQAIRGGLADCVLALGFEKMQPGALGGGADDRESPLGRHVKALAEIDEFGFPVAPWMFGAAGREHMKKYGTTAEHFAKIGYKNHKHSVNNPYAQFQDEYTLDDILASKMISDPLTKLQCSPTSDGSAAVVLASEDYLANHNLAGRAVEIVGQAMTTDFASTFDGSARNIIGYDMTVQAAQRVYQQSGLGPKDFGVIELHDCFSANELLLYEALGLCGPGEAPELIDDNQTTYGGRWVVNPSGGLISKGHPLGATGLAQCAELTWQLRGTAEARQVDNVTAALQHNIGLGGAAVVTAYQRAER", "soluble on expression in E. coli": "not soluble"},
      {"sequence": "SLVMKASVDDDDSGWELSMPEKMEKSNTNWVDITQDFEEACRELKLGELLHDKLFGLFEAMSAIEMMDPKMDAGMIGNQVNRKVLNFEQAIKDGTIKIKDLTLPELIGIMDTCFCCLITWLEGHSLAQTVFTCLYIHNPDFIEDPAMKAFALGILKICDIAREKVNKAAVFEEEDFQSMTYGFKMANSVTDLRVTGMLKDVEDDMQRRVKSTRSRQGEERDPEVELEHQQCLAVFSRVKFTRVLLTVLIAFTKKETSAVAEAQKLMVQAADLLSAIHNSLHHGIQAQNDTT", "soluble on expression in E. coli": "soluble"},
      {"sequence": "MSLEIHFEKVTSDNRKAVENLQVFAEQQAFIESMAENLKESDQFPEWESAGIYDGNQLIGYAMYGRWQDGRVWLDRFLIDQRFQGQGYGKAACRLLMLKLIEKYQTNKLYLSVYDTNSSAIRLYQQLGFVFNGELDTNGERVMEWTHQNKEGGSHHHHHH", "soluble on expression in E. coli": "soluble"},
      {"sequence": "MNTFKETLFSLKKSNYLLNESAQILNDCVVNNNEIDERLRNSIKFALGIINLASYCLKNEQEQLDHELNHGNEAPWEFSFNEAEQLIECTVKNNFGNEKLVDLIFHIGDAMETYRTTNIKFRVPKSYYDAKQQIRKVIKN", "soluble on expression in E. coli": "soluble"},
      {"sequence": "GKITFYEDRGFQGHCYESSSDCPNLQPYFSRCNSIRVDSGCWMLYERPNYQGHQYFLRRGDYPDYQQWMGFNDSIRSCRLIPQHTGTFRMRIYERDDFRGQMSEITDDCPSLQDRFHLTEVHSLNVLEGSWVLYEMPSYRGRQYLLRPGEYRRYLDWGAMNAKVGSLRRVMDFY", "soluble on expression in E. coli": "soluble"},
      {"sequence": "IKATYETFSSPNGHGEGRGYLVMPQKKTIKSPTVLVIHENRGLNPYIKDVARRLAKDGFIAFAPDALYPLGGYPGNDDEGRAMQKEMDRAKIEQDFIAAAKFIKQHEHGNGK", "soluble on expression in E. coli": "not soluble"},
      {"sequence": "MIEQIGADSKSAENKQERKLYIETYGCQMNVADSEVVASVMQMDGYNLTDNVDEADTILVNTCSVRDNAEQKVLNRLAYYHSLRKKRRASSRLVIGVLGCMAERVKEELIREHHVDVVAGPDSYLDLPNLVGAAEQGEKAINVELSTQETYKDVMPLKMGGVHINGFVSIMRGCNNFCSYCIVPYTRGRERSREIESILNEVRDLKAKNFREVTLLGQNVNSYRYEQNGRIIRFPDLLAAVAEAVPDMRIRFTSPHPKDMDDEAIAVMARYRNICNHIHLPAQSGSDKMLRVMKRGYTRRWYLDRVAAIRRAIPDCAISSDLFCGFHSETEEDFEATLSLMEEVRYDSAFMFKYSERPGTYAARHLADDVPEEVKLSRLDRMIALQNRLSEESNKRDIGKTFEVLIEGFSKRSREQLFGRTQQNKVVIFDKNGHRVGQYIYVRIKDASSATLFGEVVETPTSE", "soluble on expression in E. coli": "not soluble"},
      {"sequence": "MKKVFIPINTKIPVERQFPNRVPIWGNYEFIISTKEPEQEYDYVVVLDDIEYSLRLMCCKQNICLFTGEPPYVKLYPRKYLNQFGHVYTCQSSVLKRDNACLSYPALPWMLYYNFYNDKQKEELLIDYDFLKNRPTLQRKNKICLFTSNKKISKGHIERIKFALKLQEEMPDLIDIYGSGFTNVDYKYEVMVQYKYAIVIENCSYPYYWTEKLADTFLSGCYPIYFGDPHIGDFFSKEEMAVIDIRNFDESKQTIKKIIDNNVYEKQYENICHARDKILDKYNMFSLISSTLDSIPAKLDKEKLLLSPMRLSVFDRIRNRIYRLFYLEHHHHHH", "soluble on expression in E. coli": "not soluble"},
      {"sequence": "MEKSEIQKVDQVIRAWLEDEPLMYERLLEVEALEALPQVLGPLYKFLGRSRIHDGVLYLTFNSSVVRSQLSNNKAELLLRLNTAVDAELIRQIVFL", "soluble on expression in E. coli": "not soluble"},
      {"sequence": "MLNIGYPFWPSMRFKPRPFITPVRFKCLFCLDCCRGRHVYLTVSDIKRLVGSGHDPQKFLTFSIEGGNIRFVLSVREWDLGCIFHDPGTGKCTIHPIRPLICRIYPFMVSKRPLGVEGEEPVQYKGRMLWLYYDESCPGINSQEGEVITPEEIAELGVKFEEELSRTTFEDVIKVLLEHHHHHH", "soluble on expression in E. coli": "soluble"}
    ]}
  ]
}
